Measured values reported in patent publication US20030165506A1 (VLAAMS INTERUNIVERSITAIR INSTITUUT VOOR BIOTECHNOLOGIE VZW, published 2003).

B3: human αT-catenin fused to the GAL4 binding domain, bait plasmid pGBKT7-ATCTN(179-3024) (other, not shown: large carriers)
chain: SAETPITLNIDPQDLQVQTFTVEKLLEPLIIQVTTLVNCPQNPSSRKKGRSKRASVLLASVEEATWNLLDKGEKIAQEATVLKDELTASLEEVRKESEALKVSAERFTDDPCFLPKREAVVQAARALLAAVTRLLILADMIDVMCLLQHVSAFQRTFETLKNVANKSDLQKTYQKLGKELENLDYLAFKRQQDLKSPNQRDEIAGARASLKENSPLLHSICSACLEHSDVASLKASKDTVCEEIQNALNVISNASQGIQNMTTPPEPQAATLGSALDELENLIVLNPLTVTEEEIRPSLEKRLEAIISGAALLADSSCTRDLHRERIIAECNAIRQALQDLLSEYMNNAGKKERSNTLNIALDNMCKKTRDLRRQLRKAIIDHVSDSFLDTTVPLLVLIEAAKNGREKEIKEYAAIFHEHTSRLVEVANLACSMSTNEDGIKIVKIAANHLETLCPQIINAALALAARPKSQAVKNTMEMYKRTWENHIHVLTEAVDDITSIDDFLAVSESHILEDVNKCIIALRDQDADNLDRAAGAIRGRAARVAHIVTGEMDSYEPGAYTEGVMRNVNFLTSTVIPEFVTQVNVALEALSKSSLNVLDDNQFVDISKKIYDTIHDIRCSVMMIRTPEELEDVSDLEEEHEVRSHTSIQTEGKTDRAKMTQLPEAEKEKIAEQVADFKKVKSKLDAEIEIWDDTSNDIIVLAKNMCMIMMEMTDFTRGKGPLKHTTDVIYAAKMISESGSRMDVLARQIANQCPDPSCKQDLLAYLEQIKFYSHQLKICSQVKAEIQNLGGELIMSALDSVTSLIQAAKNLMNAVVQTVKMSYIASTKIIRIQSPAGPRHPVVMWRMKAPAKKPLIKREKPEETCAAVRRGSAKKKIHPLQVMSEFRGRQIY
B4: amino terminal part of β-catenin, prey fusion of plasmid pGAD424-ATβctn (other, UniProt P35222 14-172, looked up)
chain: MEPDRKAAVSHWQQQSYLDSGIHSGATTTAPSLSGKGNPEEEDVDTSQVLYEWEQGFSQSFTQEQVADIDGQYAMTRAQRVRAAMFPETLDEGMQIPSTQFDAAHPTNVQRLAEPSQMLKHAVVNLINYQDDAELATRAIPELTKLLNDEDQVVVNKAA
notes: domain: amino terminal fragment 239-717; also called amino terminal fragment 239-717 of β-catenin; not shown: fusion partner encoded by the prey vector pGAD424 (Clontech)

How the values were obtained:
[1] = target: T1, β-catenin prey fusion of plasmid pGAD424-βctn (UniProt P35222 14-172); assay: cell-based or functional assay
T1 sequence (looked up): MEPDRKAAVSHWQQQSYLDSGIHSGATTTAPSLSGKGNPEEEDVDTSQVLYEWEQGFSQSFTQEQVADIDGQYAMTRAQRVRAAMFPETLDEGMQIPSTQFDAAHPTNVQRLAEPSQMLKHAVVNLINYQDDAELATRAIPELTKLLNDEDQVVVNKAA

[2] = target: T2, human αT-catenin fused to the GAL4 binding domain, bait plasmid pGBT9-ATCTN(179-2860) (human, UniProt P04386 1-147 (Saccharomyces cerevisiae entry)); assay: yeast two-hybrid, X-GAL staining of cotransformants (FIG. 7A)
T2 construct: also called αT-catenin bait fusion; hαT-catenin
Text: (§1) The yeast strain Y190 (Matchmaker, Clontech, CA), which contains GAL4 promoter driven His and β-galactosidase reporters, was used for cotransformation of pGBT9 bait and pGAD424 prey plasmids, comprising the cloned inserts of interest.

[3] = target: B4; assay: cell-based or functional assay
[4] = target: T2, human αT-catenin fused to the GAL4 …; assay: yeast two-hybrid, X-GAL staining of cotransformants
Experimental: (§2) (A) Introduction in the two-hybrid system by cotransformation of the respective fusion constructs. […] (B) Quantification of interaction strength between β-catenin and either αE- or αT-catenin in the yeast two-hybrid system. β-Galactosidase activity was measured using CPRG as a substrate.

[5] = target: T3, human αE-catenin fused to the GAL4 DNA binding domain, bait plasmid pGBT9-αECTN (human, UniProt P04386 1-147; P35221 2-906); assay: as above
T3 construct: no residue limits are printed; also called αE-catenin bait fusion
Experimental: as §2

[6] = target: B3; assay: yeast two-hybrid, Y190 strain, CPRG quantification (FIG. 7B)
Experimental: as §1
To assay the strength of interaction between α-catenins and β-catenin, β-galactosidase activity was assayed using chlorophenol red-β-D-galactopyranoside (CPRG, Boehringer Mannheim, Del.) as a substrate, according to the provided protocol (Clontech Yeast Protocols Handbook).

[7] = target: T4, human α-catulin fused to the GAL4 DNA binding domain, bait plasmid pGBT9-αctl(50-2264) (human, UniProt P04386 1-147; Q9UBT7 1-734); assay: yeast two-hybrid, cotransformation of bait and prey, X-GAL staining (FIG. 7A)
T4 construct: Limits are printed only as cDNA positions (50-2264); also called α-catulin bait fusion
Text: as §1

B1: human αT-catenin fused to the LexA binding domain, bait plasmid pLexMG-ATCTN(179-2860) (other)
chain: MKALTARQQEVFDLIRDHISQTGMPPTRAEIAQRLGFRSPNAAEEHLKALARKGVIEIVSGASRGIRLLQEEEEGLPLVGRVAAGEPLLAQQHIEGHYQVDPSLFKPNADFLLRVSGMSMKDIGIMDGDLLAVHKTQDVRNGQVVVARIDDEVTVKRLKKQGNKVELLPENSEFKPIVVDLRQQSFTIEGLAVGVIRNGDWLSAETPITLNIDPQDLQVQTFTVEKLLEPLIIQVTTLVNCPQNPSSRKKGRSKRASVLLASVEEATWNLLDKGEKIAQEATVLKDELTASLEEVRKESEALKVSAERFTDDPCFLPKREAVVQAARALLAAVTRLLILADMIDVMCLLQHVSAFQRTFETLKNVANKSDLQKTYQKLGKELENLDYLAFKRQQDLKSPNQRDEIAGARASLKENSPLLHSICSACLEHSDVASLKASKDTVCEEIQNALNVISNASQGIQNMTTPPEPQAATLGSALDELENLIVLNPLTVTEEEIRPSLEKRLEAIISGAALLADSSCTRDLHRERIIAECNAIRQALQDLLSEYMNNAGKKERSNTLNIALDNMCKKTRDLRRQLRKAIIDHVSDSFLDTTVPLLVLIEAAKNGREKEIKEYAAIFHEHTSRLVEVANLACSMSTNEDGIKIVKIAANHLETLCPQIINAALALAARPKSQAVKNTMEMYKRTWENHIHVLTEAVDDITSIDDFLAVSESHILEDVNKCIIALRDQDADNLDRAAGAIRGRAARVAHIVTGEMDSYEPGAYTEGVMRNVNFLTSTVIPEFVTQVNVALEALSKSSLNVLDDNQFVDISKKIYDTIHDIRCSVMMIRTPEELEDVSDLEEEHEVRSHTSIQTEGKTDRAKMTQLPEAEKEKIAEQVADFKKVKSKLDAEIEIWDDTSNDIIVLAKNMCMIMMEMTDFTRGKGPLKHTTDVIYAAKMISESGSRMDVLARQIANQCPDPSCKQDLLAYLEQIKFYSHQLKICSQVKAEIQNLGGELIMSALDSVTSLIQAAKNLMNAVVQTVKMSYIASTKIIRIQSPAGPRHPVVMWRMKAPAKKPLIKREKPEETCAAVRRGSAKKKIHPLQVMSEFRGRQIY
[1]
  β-Galactosidase activity measured using CPRG as a substrate, yeast two-hybrid, L40 yeast strain: ~4 fold against αE-catenin/β-catenin (pLexMG-αEctn plus pGAD424-βctn)

B2: nearly full-length human plakoglobin, prey fusion of plasmid pGAD424-Plakoglobin(227-2340) (other, UniProt P14923 37-740, looked up)
chain: VSSKGIMEEDEACGRQYTLKKTTTYTQGVPPSQGDLEYQMSTTARAKRVREAMCPGVSGEDSSLLLATQVEGQATNLQRLAEPSQLLKSAIVHLINYQDDAELATRALPELTKLLNDEDPVVVTKAAMIVNQLSKKEASRRALMGSPQLVAAVVRTMQNTSDLDTARCTTSILHNLSHHREGLLAIFKSGGIPALVRMLSSPVESVLFYAITTLHNLLLYQEGAKMAVRLADGLQKMVPLLNKNNPKFLAITTDCLQLLAYGNQESKLIILANGGPQALVQIMRNYSYEKLLWTTSRVLKVLSVCPSNKPAIVEAGGMQALGKHLTSNSPRLVQNCLWTLRNLSDVATKQEGLESVLKILVNQLSVDDVNVLTCATGTLSNLTCNNSKNKTLVTQNSGVEALIHAILRAGDKDDITEPAVCALRHLTSRHPEAEMAQNSVRLNYGIPAIVKLLNQPNQWPLVKATIGLIRNLALCPANHAPLQEAAVIPRLVQLLVKAHQDAQRHVAAGTQQPYTDGVRMEEIVEGCTGALHILARDPMNRMEIFRLNTIPLFVQLLYSSVENIQRVAAGVLCELAQDKEAADAIDAEGASAPLMELLHSRNEGTATYAAAVLFRISEDKNPDYRKRVSVELTNSLFKHDPAAWEAAQSMIPINEPYGDDMDATYRPMYSSDVPLDPLEMHMDMDGDYPIDTYSDGLRPPYPTA
notes: domain: nearly full-length plakoglobin; not shown: fusion partner encoded by the prey vector pGAD424 (Clontech)
[2]
  binding result: binds

## B3
[3]
  β-Galactosidase activity measured using CPRG as a substrate, yeast two-hybrid, Y190 yeast strain: ~4 fold against αE-catenin/β-catenin (pGBT9-αEctn plus pGAD424-ATβctn)

## B4
[4]
  binding result: binds
[5]
  binding result: binds
[6]
  binding result: binds
[7]
  binding result: no binding
